# From PMC6347451
# Target: native MICU1 (in the native, disulfide-connected MICU1-2 heterodimer) (human (endogenous in HEK 293)) (UniProt Q9BPX6)
# Chain of UniProt Q9BPX6 (Q9BPX6 34-476, one chain of several): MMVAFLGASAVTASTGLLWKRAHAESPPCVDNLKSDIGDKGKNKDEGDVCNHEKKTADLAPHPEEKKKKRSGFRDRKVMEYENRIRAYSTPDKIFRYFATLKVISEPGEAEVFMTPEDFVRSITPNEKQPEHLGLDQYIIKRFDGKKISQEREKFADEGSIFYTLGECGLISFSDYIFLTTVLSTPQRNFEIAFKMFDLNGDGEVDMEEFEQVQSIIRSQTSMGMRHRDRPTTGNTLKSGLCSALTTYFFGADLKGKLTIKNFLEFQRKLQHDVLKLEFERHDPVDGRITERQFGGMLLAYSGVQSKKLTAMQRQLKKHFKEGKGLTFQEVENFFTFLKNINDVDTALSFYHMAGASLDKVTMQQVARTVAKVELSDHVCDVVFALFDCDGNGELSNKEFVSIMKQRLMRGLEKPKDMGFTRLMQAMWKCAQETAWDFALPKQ
substance,measurement,value
1D4-tagged human MCU D261A (from UniProt Q8NE86 51-351) (natural protein),"rate of mitochondrial ^45Ca^2+ uptake in low Ca^2+ (0.5 μM), D261A MCU expressed in MCU-KO cells (gating by MICU1 lost) (pmol/min/10^6 cells)",34
